Data as given in US20050112126A1 (Genentech, published 2005).
Values joined by “and” are separate entries in the source; they are usually repeats but may differ in a detail not shown here. Equal entries are not always repeated. Where two headings read alike, the source gives them in different places.

Columns and labels:
[1] = target: T1, VEGF (human, UniProt P15692-4 27-191, limits assumed); assay: BIAcore SPR, F(ab) over immobilized VEGF
T1 construct: Biotinylated in the KDR-IgG ELISA, amine-coupled to the chip in BIAcore; also called biotinylated VEGF; vascular endothelial growth factor
Description: (§1) BIAcore™ Biosensor Assay: VEGF binding of the humanized and chimeric F(ab)s were compared using a BIAcore™ biosensor (Karlsson et al. Methods: A Comparison to Methods in Enzymology 6:97-108 (1994)). […] VEGF was coupled to a CM-5 biosensor chip through primary amine groups according to manufacturer's instructions (Pharmacia). […] Data points from 0-4500 sec were used for off-rate kinetic analysis. The dissociation rate constant (koff) was obtained from the slope of the plot of ln(R0/R) versus time, where R0 is the signal at t=0 and R is the signal at each time point.
(§2) The slope, Kₛ, was obtained from the plot of ln(−dR/dt) versus time for each F(ab) concentration using the BIAcore™ kinetics evaluation software as described in the Pharmacia Biosensor manual. R is the signal at time t. […] The association rate constant (kₒₙ) was obtained from the slope of the plot of Kₛ versus F(ab) concentration. At the end of each cycle, bound F(ab) was removed by injecting 5 μl of 50 mM HCl at a flow rate of 20 μl/min to regenerate the chip.

[2] = target: T2, VEGF121 (human, UniProt P15692 27-147); assay: BIAcore SPR, Fab over immobilized VEGF121
T2 construct: mature; Immobilized on the biosensor chip via primary amino groups; also called Purified VEGF121
T2 sequence (looked up): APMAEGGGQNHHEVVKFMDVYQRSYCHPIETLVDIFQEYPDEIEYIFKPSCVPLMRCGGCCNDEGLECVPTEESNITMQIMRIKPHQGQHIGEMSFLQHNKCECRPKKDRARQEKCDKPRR
Description: VEGF₁₂₁ was covalently immobilized on the biosensorchip via primary amino groups. Binding of humanized A4.6.1 Fab variants was measured by flowing solutions of Fab in PBS/0.05% TWEEN 20™ over the chip at a flow rate of 20 μL/min. Following each binding measurement, residual Fab was stripped from the immobilized ligand by washing with 5 μL of 50 mM aqueous HCl at 3 μL/min. Binding profiles were analyzed by nonlinear regression using a simple monovalent binding model (BIAevaluation software v2.0; Pharmacia).

[3] = target: T1, VEGF; assay: BIAcore SPR, F(ab) over immobilized VEGF, koff/kon
Description: as §1, §2

[4] = target: T1, VEGF; assay: competition ELISA (biotinylated VEGF to KDR-IgG)
Description: (§3) Standards (6.9-440 ng/ml chimeric F(ab)) and two-fold serial of samples were incubated with 2 nM biotinylated VEGF for 1 h in tubes. The solutions from the tubes were then transferred to the ELISA plates and incubated for 1 h. […] Titration curves were fit with a four-parameter nonlinear regression curve-fitting program (KaleidaGraph, Synergy Software, Reading Pa.). […] Assays for full-length IgG were the same as for the F(ab)s except that the assay buffer contained 10% human serum.

[5] = target: T1, VEGF; assay: competition ELISA (biotinylated VEGF to KDR-IgG), 10% human serum
Description: as §3

[6] = target: T1, VEGF; assay: competition ELISA (biotinylated VEGF to KDR-IgG); remark: listed apart in the source
[7] = target: T1, VEGF; assay: BIAcore-2000 SPR, Fab over immobilized VEGF, 25 C
Description: (§4) BIAcore Analysis: The VEGF-binding affinities of Fab fragments were calculated from association and dissociation rate constants measured using a BIAcore-2000™ surface plasmon resonance system (BIAcore, Inc., Piscataway, N.J.). A biosensor chip was activated for covalent coupling of VEGF using N-ethyl-N′-(3-dimethylaminopropyl)-carbodiimide hydrochloride (EDC) and N-hydroxysuccinimide (NHS) according to the supplier's (BIAcore, Inc., Piscataway, N.J.) instructions. VEGF was buffered exchanged into 20 mM sodium acetate, pH 4.8 and diluted to approximately 50 μg/mL. An aliquot (35 μL) was injected at a flow rate of 2 μL/min to achieve approximately 700-1400 response units (RU) of coupled protein. Finally, 1 M ethanolamine was injected as a blocking agent.
(§5) For kinetics measurements, two-fold serial dilutions of Fab were injected in PBS/TWEEN™ buffer (0.05% TWEEN 20™ in phosphate buffered saline) at 25° C. at a flow rate of 10 μL/min. […] Equilibrium dissociation constants, Kd's from surface plasmon resonance (SPR) measurements were calculated as koff/kon.
Target sequence in this assay (P15692 other isoform, or with tags, fused parts or gaps limits assumed): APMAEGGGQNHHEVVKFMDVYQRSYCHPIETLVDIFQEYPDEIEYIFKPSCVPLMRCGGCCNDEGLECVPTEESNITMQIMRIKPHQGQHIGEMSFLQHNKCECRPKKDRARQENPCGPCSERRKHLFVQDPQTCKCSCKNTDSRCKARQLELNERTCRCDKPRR

[8] = target: T1, VEGF; assay: BIAcore-2000 SPR, Fab over immobilized VEGF, 25 C; off-rate near detection limit
Description: as §4, §5

[9] = target: T1, VEGF; assay: BIAcore-2000 SPR, relative to Y0192
Description: as §4, §5

[10] = target: T3, rhVEGF165 (human, UniProt P15692 27-191); assay: cell-based or functional assay
[11] = target: T3, rhVEGF165; assay: cell-based or functional assay; remark: listed apart in the source

B1: chimeric F(ab) (Fab, V domains shown)
VH: EIQLVQSGPELKQPGETVRISCKASGYTFTNYGMNWVKQAPGKGLKWMGWINTYTGEPTYAADFKRRFTFSLETSASTAYLQISNLKNDDTATYFCAKYPHYYGSSHWYFDVWGAGTTVTVSS
VL: DIQMTQTTSSLSASLGDRVIISCSASQDISNYLNWYQQKPDGTVKVLIYFTSSLHSGVPSRFSGSGSGTDYSLTISNLEPEDIATYYCQQYSTVPWTFGGGTKLEIKR
notes: also called chim-F(ab); A4.6.1 chimera
koff [1]: 5.9e-05 s⁻¹ | kon [1]: 65000 M⁻¹ s⁻¹ | Kd [2]: 1.6 nM | koff [2]: 8.5e-05 s⁻¹ | kon [2]: 54000 M⁻¹ s⁻¹ | Kd [3]: 0.91 nM | EC50 [4]: 0.049 µg/mL and 1 nM | EC50 F(ab)-X / EC50 chimeric F(ab) [4]: 1 ratio

B2: chIgG1 (antibody, V domains shown)
VH: EIQLVQSGPELKQPGETVRISCKASGYTFTNYGMNWVKQAPGKGLKWMGWINTYTGEPTYAADFKRRFTFSLETSASTAYLQISNLKNDDTATYFCAKYPHYYGSSHWYFDVWGAGTTVTVSS
VL: DIQMTQTTSSLSASLGDRVIISCSASQDISNYLNWYQQKPDGTVKVLIYFTSSLHSGVPSRFSGSGSGTDYSLTISNLEPEDIATYYCQQYSTVPWTFGGGTKLEIKR
notes: Murine A4.6.1 VL and VH fused to human kappa CL and human IgG1 heavy chain constant domains; also called chimeric IgG1
EC50 [5]: 0.113 µg/mL and 0.75 nM | IgG1/chIgG1 (EC50 ratio) [5]: 1 ratio

B3: muMAb VEGF A.4.6.1 (antibody, V domains shown)
VH: EIQLVQSGPELKQPGETVRISCKASGYTFTNYGMNWVKQAPGKGLKWMGWINTYTGEPTYAADFKRRFTFSLETSASTAYLQISNLKNDDTATYFCAKYPHYYGSSHWYFDVWGAGTTVTVSS
VL: DIQMTQTTSSLSASLGDRVIISCSASQDISNYLNWYQQKPDGTVKVLIYFTSSLHSGVPSRFSGSGSGTDYSLTISNLEPEDIATYYCQQYSTVPWTFGGGTKLEIKR
notes: Original murine IgG1 antibody purified from ascites; also called murIgG1; murine mAb A4.6.1
IgG1/chIgG1 (EC50 ratio) [5]: 0.759 ratio

B4: F(ab)-1 (Fab, V domains shown)
VH: EVQLVESGGGLVQPGGSLRLSCAASGYTFTNYGMNWVRQAPGKGLEWVGWINTYTGEPTYAADFKRRFTISRDNSKNTLYLQMNSLRAEDTAVYYCARYPHYYGSSHWYFDVWGQGTLVTVSS
VL: DIQMTQSPSSLSASVGDRVTITCSASQDISNYLNWYQQKPGKAPKLLIYFTSSLHSGVPSRFSGSGSGTDFTLTISSLQPEDFATYYCQQYSTVPWTFGQGTKVEIK
EC50 F(ab)-X / EC50 chimeric F(ab) [6]: > 1350 | fold reduction of binding affinity from the chimeric F(ab) [6]: > 1000 fold

B5: F(ab)-8 (Fab, V domains shown)
VH: EVQLVESGGGLVQPGGSLRLSCAASGYTFTNYGMNWVRQAPGKGLEWVGWINTYTGEPTYAADFKRRFTFSLDTSKNTAYLQMNSLRAEDTAVYYCARYPHYYGSSHWYFDVWGQGTLVTVSS
VL: DIQMTQSPSSLSASVGDRVTITCSASQDISNYLNWYQQKPGKAPKVLIYFTSSLHSGVPSRFSGSGSGTDFTLTISSLQPEDFATYYCQQYSTVPWTFGQGTKVEIK
notes: F(ab)-5 with IleH69Phe and LeuH78Ala; Kabat numbers; Fab with human CH1 and CL
EC50 F(ab)-X / EC50 chimeric F(ab) [4]: 9.6 ratio | fold improvement in binding vs F(ab)-5 [4]: 8 fold

B6: F(ab)-9 (Fab, V domains shown)
VH: EVQLVESGGGLVQPGGSLRLSCAASGYTFTNYGMNWVRQAPGKGLEWVAWINTYTGEPTYAADFKRRFTFSLDTSKNTAYLQMNSLRAEDTAVYYCARYPHYYGSSHWYFDVWGQGTLVTVSS
VL: DIQMTQSPSSLSASVGDRVTITCSASQDISNYLNWYQQKPGKAPKVLIYFTSSLHSGVPSRFSGSGSGTDFTLTISSLQPEDFATYYCQQYSTVPWTFGQGTKVEIK
notes: F(ab)-8 with GlyH49Ala; Kabat numbers; Fab with human CH1 and CL
EC50 F(ab)-X / EC50 chimeric F(ab) [4]: > 150 ratio | fold reduction in binding vs F(ab)-8 [4]: 15 fold

B7: Y0238-3 (Fab, V domains shown)
VH: EVQLVESGGGLVQPGGSLRLSCAASGYTFTNYGINWVRQAPGKGLEWVGWINTYTGEPTYAADFKRRFTFSLDTSKSTAYLQMNSLRAEDTAVYYCAKYPYYYGTSHWYFDVWGQGTL
VL: DIQLTQSPSSLSASVGDRVTITCRANEQLSNYLNWYQQKPGKAPKVLIYFTSSLHSGVPSRFSGSGSGTDFTLTISSLQPEDFATYYCQQYSTVPWTFGQGTKVEIKR
notes: Soluble Fab
Kd [7]: ≤ 0.2 nM | kon [7]: 17000 M⁻¹ s⁻¹ | koff [8]: ≤ 4e-06 s⁻¹ | Kd (wt)/Kd (mut) [9]: ≥ 14 ratio

B8: Y0313-1 (Fab, V domains shown)
VH: EVQLVESGGGLVQPGGSLRLSCAASGYDFTHYGMNWVRQAPGKGLEWVGWINTYTGEPTYAADFKRRFTFSLDTSKSTAYLQMNSLRAEDTAVYYCAKYPYYYGTSHWYFDVWGQGTL
VL: DIQLTQSPSSLSASVGDRVTITCRANEQLSNYLNWYQQKPGKAPKVLIYFTSSLHSGVPSRFSGSGSGTDFTLTISSLQPEDFATYYCQQYSTVPWTFGQGTKVEIKR
notes: Soluble Fab; Y0243-1 with VH3 H101Y and S105T
Kd [7]: ≤ 0.15 nM | kon [7]: 35000 M⁻¹ s⁻¹ | IC50 (read off the curve) [10]: ~0.5 nM | fold potency over the wild-type Fab (Y0192), inhibition of VEGF-induced HuVEC growth [11]: > 30 fold | koff [8]: ≤ 5.4e-06 s⁻¹ | Kd (wt)/Kd (mut) [9]: ≥ 20 ratio

B9: Y0313-3 (Fab, V domains shown)
VH: EVQLVESGGGLVQPGGSLRLSCAASGYTFTNYGINWVRQAPGKGLEWVGWINTYTGEPTYAADFKRRFTFSLDTSKSTAYLQMNSLRAEDTAVYYCAKYPYYYGSSHWYFDVWGQGTL
VL: DIQLTQSPSSLSASVGDRVTITCRANEQLSNYLNWYQQKPGKAPKVLIYFTSSLHSGVPSRFSGSGSGTDFTLTISSLQPEDFATYYCQQYSTVPWTFGQGTKVEIKR
notes: Soluble Fab
Kd [7]: 0.65 nM | koff [7]: 8.1e-06 s⁻¹ | kon [7]: 12000 M⁻¹ s⁻¹ | Kd (wt)/Kd (mut) [9]: 4.5 ratio

B10: Y0238-7 (Fab, V domains shown)
VH: EVQLVESGGGLVQPGGSLRLSCAASGYTFTNYGINWVRQAPGKGLEWVGWINTYTGEPTYAADFKRRFTFSLDTSKSTAYLQMNSLRAEDTAVYYCAKYPYYWGTSHWYFDVWGQGTL
VL: DIQLTQSPSSLSASVGDRVTITCRANEQLSNYLNWYQQKPGKAPKVLIYFTSSLHSGVPSRFSGSGSGTDFTLTISSLQPEDFATYYCQQYSTVPWTFGQGTKVEIKR
notes: From library YC-81 on the pY0192 template; Soluble Fab
Kd [7]: ≤ 0.4 nM | kon [7]: 15000 M⁻¹ s⁻¹ | koff [8]: ≤ 6e-06 s⁻¹ | Kd (wt)/Kd (mut) [9]: ≥ 7.3 ratio

B11: Y0244-4 (Fab, V domains shown)
VH: EVQLVESGGGLVQPGGSLRLSCAASGYTFTNYGINWVRQAPGKGLEWVGWINTYTGEPTYAADFKRRFTFSIDKSKSTAYLQMNSLRAEDTAVYYCAKYPHYYGSSHWYFDVWGQGTL
VL: DIQLTQSPSSLSASVGDRVTITCRANEQLSNYLNWYQQKPGKAPKVLIYFTSSLHSGVPSRFSGSGSGTDFTLTISSLQPEDFATYYCQQYSTVPWTFGQGTKVEIKR
notes: Soluble Fab
Kd [7]: 3.3 nM | koff [7]: 0.00017 s⁻¹ | kon [7]: 52000 M⁻¹ s⁻¹ | Kd (wt)/Kd (mut) [9]: 0.9 ratio
